Series [1] deals with T1, CYP2B6 (Homo sapiens, UniProt P20813, K262R/Y226H).
T1 sequence (P20813 29-491 Y226H/K262R): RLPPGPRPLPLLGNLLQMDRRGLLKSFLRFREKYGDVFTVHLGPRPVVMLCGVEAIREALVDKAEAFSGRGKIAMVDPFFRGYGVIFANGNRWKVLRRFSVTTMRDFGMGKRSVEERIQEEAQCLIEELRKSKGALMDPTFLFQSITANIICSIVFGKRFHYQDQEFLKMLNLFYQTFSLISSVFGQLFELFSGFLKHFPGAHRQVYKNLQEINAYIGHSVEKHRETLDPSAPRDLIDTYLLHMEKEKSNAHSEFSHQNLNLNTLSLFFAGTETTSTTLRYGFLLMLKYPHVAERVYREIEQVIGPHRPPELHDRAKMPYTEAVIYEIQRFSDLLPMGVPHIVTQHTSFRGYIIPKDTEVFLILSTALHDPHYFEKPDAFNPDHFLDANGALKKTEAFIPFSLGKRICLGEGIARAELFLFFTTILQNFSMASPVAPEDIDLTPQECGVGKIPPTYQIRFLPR
Kind of series: biochemical.

Series [2] concerns the target T2, CYP2B6 (Homo sapiens, UniProt P20813, Y226H/K262R).
T2 sequence (P20813 29-491 Y226H/K262R): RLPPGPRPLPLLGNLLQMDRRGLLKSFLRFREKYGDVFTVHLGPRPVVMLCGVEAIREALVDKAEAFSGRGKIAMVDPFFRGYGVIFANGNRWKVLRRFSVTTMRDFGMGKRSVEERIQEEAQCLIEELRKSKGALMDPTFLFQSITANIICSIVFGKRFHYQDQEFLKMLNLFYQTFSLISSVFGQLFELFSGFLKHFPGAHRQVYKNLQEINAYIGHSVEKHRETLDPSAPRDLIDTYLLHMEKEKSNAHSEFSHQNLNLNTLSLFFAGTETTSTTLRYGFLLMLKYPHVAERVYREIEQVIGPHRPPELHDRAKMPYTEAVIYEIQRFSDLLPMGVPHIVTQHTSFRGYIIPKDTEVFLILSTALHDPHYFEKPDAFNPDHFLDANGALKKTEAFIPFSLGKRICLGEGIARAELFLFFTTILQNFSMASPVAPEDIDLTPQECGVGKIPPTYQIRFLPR
It counts as biochemical. To be noted: reconstituted purified enzyme.

Substrate in series [3]: CCOc1ccc2c(C(F)(F)F)cc(=O)oc2c1
Kind of series: steady-state O-deethylation kinetics, reconstituted purified enzyme. The class given is biochemical, Oryctolagus cuniculus. To be noted: heme.

Substrate in series [4]: O=c1ccc2nc3ccc(OCc4ccccc4)cc3oc-2c1
Kind of series: steady-state O-debenzylation kinetics, reconstituted purified enzyme. The class given is biochemical, Oryctolagus cuniculus. To be noted: heme.

For `OC[C@H]1O[C@H](O[C@H]2[C@H](O)[C@@H](O)[C@H](OCCCCCC3CCCCC3)O[C@@H]2CO)[C@H](O)[C@@H](O)[C@@H]1O` [CYMAL-5, 5-cyclohexyl-1-pentyl-β-D-maltoside], it took 739 ± 42.5 µM to reach half-maximal inhibition in series [1] (IC50).
Consider `CCOc1ccc2c(C(F)(F)F)cc(=O)oc2c1` [7-EFC, 7-ethoxy-4-(trifluoromethyl)coumarin], for which the Km (commonly the substrate concentration at which the rate is half of its maximum) in series [2] turned out to be 6.2 ± 0.6 µM.

B1: CYP2B4 (Oryctolagus cuniculus; H226Y) (protein)
chain: GRLPPGPSPLPVLGNLLQMDRKGLLRSFLRLREKYGDVFTVYLGSRPVVVLCGTDAIREALVDQAEAFSGRGKIAVVDPIFQGYGVIFANGERWRALRRFSLATMRDFGMGKRSVEERIQEEARCLVEELRKSKGALLDNTLLFHSITSNIICSIVFGKRFDYKDPVFLRLLDLFFQSFSLISSFSSQVFELFPGFLKYFPGTHRQIYRNLQEINTFIGQSVEKHRATLDPSNPRDFIDVYLLRMEKDKSDPSSEFHHQNLILTVLSLFFAGTETTSTTLRYGFLLMLKYPHVTERVQKEIEQVIGSHRPPALDDRAKMPYTDAVIHEIQRLGDLIPFGVPHTVTKDTQFRGYVIPKNTEVFPVLSSALHDPRYFETPNTFNPGHFLDANGALKRNEGFMPFSLGKRICLGEGIARTELFLFFTTILQNFSIASPVPPEDIDLTPRESGVGNVPPSYQIRFLAR
For the molecule B1, in series [3], the Km amounted to 28.4 ± 7.6 µM; the kcat – broadly, the maximal rate divided by the concentration of active sites – was determined as 0.123 ± 0.0217 s⁻¹; the kcat/Km (usually the turnover number divided by the Michaelis constant) was found to be 4330 M⁻¹ s⁻¹. Further, in series [4], the Km came out at 1.03 ± 0.22 µM, the kcat is 0.03267 ± 0.000167 s⁻¹ and the kcat/Km was found to be 31700 M⁻¹ s⁻¹.

For the origin of these results see PMC4599343 (Archives of biochemistry and biophysics, 2015).
